Measured values: PMC10350561 (MicrobiologyOpen, 2023)

Biological target: staphylococcal superantigen-like protein 1 (Staphylococcus aureus, strain of the …, UniProt A0A0H3KAV3)
Assay: ELISA
Settings: one partner purified

Sequence of staphylococcal superantigen-like protein 1 (A0A0H3KAV3 31-226): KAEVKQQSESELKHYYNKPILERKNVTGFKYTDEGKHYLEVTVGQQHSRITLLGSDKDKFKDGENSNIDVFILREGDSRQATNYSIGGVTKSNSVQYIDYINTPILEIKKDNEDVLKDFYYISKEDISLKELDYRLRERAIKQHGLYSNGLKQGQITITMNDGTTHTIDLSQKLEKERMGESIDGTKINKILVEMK

B1: scFv-99 (scFv-ALP fusion) (scFv, V domains shown)
VH: EVQLLESGGGLVQPGGSLRLSCAASGFTFSNYSMHWVRQAPGKGLEWVSVIDYNSGYTDYADSVKGRFTISRDNSKNTLYLQMNSLRAEDTAVYYCARGIFDYWGQGTLVTVSS
VL: EIVLTQSPGTLSLSPGERATLSCRASQSVSSSALAWYQQKPGQAPRLLIYGASSRATGVPDRFSGSGSGTDFTLTISRLEPEDFAVYYCQQSSSTPWTFGQGTKVEIK
- binding result: binds
